Tests used:
[1] = biological target: rat parathyroid hormone receptor (PTHR) (UniProt P25961); assay: competition binding; RG conformation
[2] = biological target: rat parathyroid hormone receptor (PTHR) (UniProt P25961); assay: competition binding; R0 conformation

Sequence of rat parathyroid hormone receptor (PTHR) (P25961 27-591): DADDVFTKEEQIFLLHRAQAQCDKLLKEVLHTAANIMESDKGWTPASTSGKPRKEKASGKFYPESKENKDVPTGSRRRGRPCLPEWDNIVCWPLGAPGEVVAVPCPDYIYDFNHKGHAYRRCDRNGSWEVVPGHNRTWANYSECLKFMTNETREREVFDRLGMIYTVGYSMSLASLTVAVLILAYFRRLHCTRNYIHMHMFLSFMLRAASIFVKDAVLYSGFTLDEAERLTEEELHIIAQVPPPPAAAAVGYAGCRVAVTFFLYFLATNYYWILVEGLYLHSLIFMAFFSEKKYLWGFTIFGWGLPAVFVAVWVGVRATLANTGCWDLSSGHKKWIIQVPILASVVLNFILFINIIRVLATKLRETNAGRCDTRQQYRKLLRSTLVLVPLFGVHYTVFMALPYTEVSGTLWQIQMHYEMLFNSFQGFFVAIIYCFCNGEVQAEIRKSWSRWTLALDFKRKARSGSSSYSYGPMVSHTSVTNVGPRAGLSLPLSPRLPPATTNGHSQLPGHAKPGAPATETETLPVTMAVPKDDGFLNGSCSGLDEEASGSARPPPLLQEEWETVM

Substance | IC50 [1] [nM] | IC50 [2] [nM]
Mc-PTH(1-14)/PTHrP(15-36)OH | 0.81 | 1.3
H5,E19,Mc-hPTH(1-14)/rP(15-36)OH | 4.8 | 197
Mc-PTH(1-11)/PTHrP(12-36)OH | 0.73 | 1.8
H5,E19,Mc-hPTH(1-34)OH | 1.41 | 1390
hPTHrP(1-36) | 0.44 | 20
[I^5]-PTHrP(1-36) | 1.02 | 2.3
H5,Mc-hPTH(1-34)OH | 0.32 | 26
Mc-hPTH(1-34)OH | 0.56 | 1.9
H5,Mc-hPTH(1-14)/rP(15-36)OH | 1.7 | 9
Mc-PTH(1-18)/PTHrP(19-36)OH | 0.82 | 1.4
[A^23,E^19],Mc-hPTH(1-34)OH | 0.49 | 20.3
[E^19],Mc-hPTH(1-34)OH | 0.57 | 2.33

— patent US20110172153A1
